Test results from PMC5643395.

What was measured:
Assay in all cases: ensemble FRET (microplate), salt-induced disassembly
Conditions in all cases: Reconstitution by dialysis from 2 M to 5 mM NaCl in 10 mM Tris-HCl, 0.1 mM EDTA; FRET over NaCl titration (FRET buffer and temperature not in the material) …
histone octamer H2A R81A = test system: histone octamer H2A R81A
[1] = test system: histone octamer H2A R81E/R88E
histone octamer H2A R81E = test system: histone octamer H2A R81E
histone octamer H2A R88A = test system: histone octamer H2A R88A
[2] = test system: histone octamer H2A R81A/R88A
histone octamer H2A R88E = test system: histone octamer H2A R88E

**Q.** Which K half (histone octamer H2A R81A) does the source give for Widom 601 170 bp here?
**A.** 632 mM NaCl

**Q.** What about the K half [1] of the same substance?
**A.** 452 mM NaCl

**Q.** And the K half (histone octamer H2A R81E)?
**A.** 468 mM NaCl

**Q.** What about the K half (histone octamer H2A R88A) of the same substance?
**A.** 668 mM NaCl

**Q.** What about the K half [2] of the same substance?
**A.** 568 mM NaCl

**Q.** And the K half (histone octamer H2A R88E)?
**A.** 455 mM NaCl
